This note sets out measurements from patent US20220227870A1 (Innovent, published 2022).

Experiment [1] has as its target T1, rh PD-L1 (Acrobiosystems) (human, UniProt Q9NZQ7 19-238).
T1 construct: Bought soluble antigen; also called PD-L1 protein in solution
The experiment can be described thus: ForteBio Octet BLI; antibody loaded on AHC sensor, antigen 100 nM in solution; note: N.B: Not detectable. In general terms: Biolayer interferometry detects binding as a change in optical thickness at a sensor tip.
Experimental: (§1) The anti-human IgG Fc biosensor AHC was immersed in each well containing the antibody solution, and immersed at room temperature for 600 seconds to load the samples. The sensor was then washed in SD buffer until it returned to the baseline, and then immersed in a well containing 100 μL of the antigen solution to monitor the association of the antibody with the antigen. The sensor was then transferred to a well containing 100 ul of SD buffer to monitor the antibody dissociation. The rotation speed was 400 rpm and the temperature was 30° C. The background-corrected association and dissociation curves were plotted by the Octet analysis software (ForteBio) to generate the association (k_{∞}) rate constant and dissociation (kdis) rate constant, which are then used to calculate the equilibrium dissociation constant (KD).

Experiment [2] deals with T2, h CD47 (Acrobiosystems) (human, UniProt Q08722 19-139).
T2 construct: Bought soluble antigen; also called CD47 protein in solution
As to the kind of experiment: ForteBio Octet BLI; antibody loaded on AHC sensor, h CD47 100 nM in solution.
Experimental: as §1

Experiment [3] addresses T3, tumor cells H292 (ATCC), co-incubated with human red blood cells.
T3 construct: also called H292 cells
The experiment can be described thus: flow cytometry; CFSE-labelled H292 cells co-incubated 1:20 with human red blood cells; antibody 0.123 nM. A general note: A flow cytometer gives signals particle by particle.
Experimental: (§2) Tumor cells H292 (ATCC) were fluorescently labeled with fluorochrome CFSE according to the instructions of CellTrace™ CFSE Cell Proliferation Kit (Invitrogen, catalog number: C34554). The labeled tumor cells were co-cultured with the aforementioned isolated human red blood cells at a ratio of 1:20 in terms of cell number, and meanwhile, tested antibody solutions of different concentrations were added. The cells were incubated at 4° C. for 30 min. […] The cells were washed at least twice with PBS and analyzed by flow cytometry.

For experiment [4], the target named is T3, tumor cells H292 (ATCC), co-incubated …. The experiment can be described thus: flow cytometry; CFSE-labelled H292 cells co-incubated 1:20 with human red blood cells; antibody 0.014 nM.
Experimental: (§3) The mixture was then gently added to 4 tubes each with 12.5 ml of FiColl (Thermo). The samples were centrifuged at 400 g for 30 min with zero deceleration. The upper serum and PBMC were removed to obtain red blood cells in the lowest layer.
as §2
The target is the same in experiment [5]. The experiment can be described thus: flow cytometry; CFSE-labelled H292 cells co-incubated 1:20 with human red blood cells; antibody 3.333 nM.
Experimental: as §3, §2
For experiment [6] the target is unchanged. As to the kind of experiment: flow cytometry; CFSE-labelled H292 cells co-incubated 1:20 with human red blood cells; antibody 1.111 nM.
Experimental: as §2
Experiment [7] addresses T4, human CD47 expressed on the surface of cells (CHO-S-CD47 cells) (human, UniProt Q08722 19-323).
T4 construct: whole, on cells; also called CHO-S cells overexpressing CD47; CHO-CD47
The experiment can be described thus: FACS on CHO-S cells overexpressing human CD47, PE-conjugated anti-human Fc detection, MFI.
Experimental: The cell suspension was centrifuged at 400 g on a centrifuge for 5 minutes to remove the cell medium. […] The cell suspension was centrifuged at 400 g for 5 minutes, and then the supernatant was removed, and the cells were washed with PBS to remove the unbound antibodies. The obtained cell suspension was centrifuged at 400 g for 5 minutes to remove PBS. 100 μL of the solution of PE-conjugated anti-human Fc antibody (Jackson Immuno Research) diluted at a ratio of 1:200 was added to each well, and the cells were incubated in the dark on the ice for 30 minutes. Then the cell suspension was centrifuged at 400 g for 5 minutes and the supernatant was removed. The cells were washed with PBS to remove the unbound PE-conjugated anti-human Fc antibody. The cells were resuspended with 100 μL of PBS, and the binding of the antibodies to cells was assayed by FACS.

The target in experiment [8] is T3, tumor cells H292 (ATCC), co-incubated …. The experiment can be described thus: flow cytometry; CFSE-labelled H292 cells co-incubated 1:20 with human red blood cells; antibody 10.000 nM.
Experimental: as §3, §2
Experiment [9] shares this target. The experiment can be described thus: flow cytometry; CFSE-labelled H292 cells co-incubated 1:20 with human red blood cells; antibody 0.370 nM.
Experimental: as §3, §2
The target is the same in experiment [10]. The experiment can be described thus: flow cytometry; CFSE-labelled H292 cells co-incubated 1:20 with human red blood cells; antibody 0.041 nM.
Experimental: as §2
Experiment [11] addresses T5, human PD-L1 expressed on the surface of cells (CHO-S-PD-L1 cells) (human, UniProt Q9NZQ7 19-290).
T5 construct: whole, on cells; also called CHO-S cells overexpressing PD-L1; PD-L1 aAPC/CHO-K1 cells
As to the kind of experiment: FACS on CHO-S cells overexpressing human PD-L1, PE-conjugated anti-human Fc detection, MFI.
Experimental: In short, CHO-S-PD-L1 cells were counted, and the cell suspension was diluted to 1×10⁶ cells/ml with cell medium, and then added to a U-bottom 96-well plate at 100 μl/well. The cell suspension was centrifuged at 400 g on a centrifuge for 5 minutes to remove the cell medium. […] The cell suspension was centrifuged at 400 g for 5 minutes, and then the supernatant was removed, and the cells were washed with PBS to remove the unbound antibodies. The obtained cell suspension was centrifuged at 400 g for 5 min to remove PBS. 100 μl of the solution of PE-conjugated anti-human Fc antibody (Jackson Immuno Research) diluted at a ratio of 1:200 was added to each well, and the cells were incubated in the dark on the ice for 30 min. Then the cell suspension was centrifuged at 400 g for 5 min and the supernatant was removed. The cells were washed with PBS to remove the unbound PE-conjugated anti-human Fc antibody. The cells were resuspended with 100 μl of PBS, and the binding of the antibodies to cells was assayed by FACS.

For experiment [12], the target named is T6, human LAG-3 expressed on the surface of cells (293-LAG-3 cells) (human, UniProt P18627 23-525).
T6 construct: whole, on cells; also called HEK293 cells overexpressing LAG-3; CD223
T6 sequence (looked up): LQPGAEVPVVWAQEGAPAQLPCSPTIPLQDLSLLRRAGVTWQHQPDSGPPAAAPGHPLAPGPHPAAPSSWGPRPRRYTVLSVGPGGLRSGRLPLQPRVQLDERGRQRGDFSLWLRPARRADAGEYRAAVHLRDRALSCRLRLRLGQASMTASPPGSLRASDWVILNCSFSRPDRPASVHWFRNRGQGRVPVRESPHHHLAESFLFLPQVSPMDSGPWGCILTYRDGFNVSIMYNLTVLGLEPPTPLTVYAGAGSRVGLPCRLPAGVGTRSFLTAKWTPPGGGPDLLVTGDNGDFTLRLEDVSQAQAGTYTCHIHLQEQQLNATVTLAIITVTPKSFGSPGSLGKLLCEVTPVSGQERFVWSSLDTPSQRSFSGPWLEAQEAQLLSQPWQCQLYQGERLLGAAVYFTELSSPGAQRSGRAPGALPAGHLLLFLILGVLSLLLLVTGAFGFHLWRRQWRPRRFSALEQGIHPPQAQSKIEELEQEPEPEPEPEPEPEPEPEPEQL
As to the kind of experiment: FACS on HEK293 cells overexpressing human LAG-3, PE-conjugated anti-human Fc detection, MFI.

For orientation: Kd means the constant that tells how readily two partners part at equilibrium. Higher therefore signals lower affinity. What is called koff is the rate constant with which the complex falls apart. Read a low koff as a long-lived complex. By kon is commonly meant a measure of how fast the partners come together. Read a low kon as slow association. What is called EC50 (read off the curve) is the concentration giving half of the maximal effect. Higher therefore signals a less potent agent.

B1: anti-CD47 antibody ADI-29341 (antibody, V domains shown)
VH: QVQLQESGPGLVKPSETLSLTCTVSGGSIEHYYWSWIRQPPGKGLEWIGYIYYSGSTNYNPSLKSRVTISVDTSKNQFSLKLSSVTAADTAVYYCARGKTGSAAWGQGTLVTVSS
VL: DIQMTQSPSSVSASVGDRVTITCRASQGISRWLAWYQQKPGKAPKLLIYAASSLQSGVPSRFSGSGSGTDFTLTISSLQPEDFATYYCQQTVSFPITFGGGTKVEIK
notes: captured on an anti-human IgG Fc sensor; also called parent antibody (anti-CD47)
For the molecule B1, the binding result in [1] was “no binding (tested: 100 nM)”. Besides, in experiment [2], the Kd stood at 2.32 nM. In experiment [2], this molecule showed a koff of 0.0018 s⁻¹. This molecule also displayed a kon in experiment [2] of 774000 M⁻¹ s⁻¹. The “proportion of antibody binding to H292 cells” value was 5.74% in experiment [3]; 3.59% in [4]; 8.42% in experiment [5]; 6.15% in experiment [6]; 3.9% in [8]; 14.4% in experiment [9]. Moreover, the “proportion of antibody binding to H292 cells” value in experiment [10] was determined as 17.7%. For the same molecule, the “EC50 (read off the curve)” value in experiment [7] was roughly 1 nM.

B2: anti-LAG-3/PD-L1 bispecific antibody Kh2NF-PL (bispecific antibody, human IgG1, kappa, L234A L235A)
heavy: not shown
light: not shown
chain: QVQLQESGGGLVQPGGSLRLSCAASAYTISRNSMGWFRQAPGKGLEGVAAIESDGSTSYSDSVKGRFTISLDNSKNTLYLEMNSLRAEDTAVYYCAAPKVGLGPRTALGHLAFMTLPALNYWGQGTLVTVSSQVQLQESGGGLVQPGGSLRLSCAASAYTISRNSMGWFRQAPGKGLEGVAAIESDGSTSYSDSVKGRFTISLDNSKNTLYLEMNSLRAEDTAVYYCAAPKVGLGPRTALGHLAFMTLPALNYWGQGTLVTVSSDKTHTCPPCPAPEAAGGPSVFLFPPKPKDTLMISRTPEVTCVVVDVSHEDPEVKFNWYVDGVEVHNAKTKPREEQYNSTYRVVSVLTVLHQDWLNGKEYKCKVSNKALPAPIEKTISKAKGQPREPQVCTLPPSRDELTKNQVSLSCAVKGFYPSDIAVEWESNGQPENNYKTTPPVLDSDGSFFLVSKLTVDKSRWQQGNVFSCSVMHEALHNHYTQKSLSLSPG
notes: Triple-chain antibody; Fc with LALA and knob-in-hole mutations
For B2, the “EC50 (read off the curve)” value in experiment [11] and in experiment [12] was roughly 1 nM each time.
